Literature values in patent publication US9358478B2, “Spray-drying apparatus and methods of using the same” (Bend Research, Inc., priority 2010, dated 2016).

Conditions: in words

Peptide YY (PYY) [Active Agent 3]
solubility in water: soluble
